Target: PKM2 (pyruvate kinase M, isoform M2) (human (endogenous in HUVECs)) (UniProt P14618)
Test: native gel or EMSA

Sequence of PKM2 (pyruvate kinase M, isoform M2), P14618 1-531 (enzyme; other documents disagree on this pair) (P14618 whole entry, canonical isoform): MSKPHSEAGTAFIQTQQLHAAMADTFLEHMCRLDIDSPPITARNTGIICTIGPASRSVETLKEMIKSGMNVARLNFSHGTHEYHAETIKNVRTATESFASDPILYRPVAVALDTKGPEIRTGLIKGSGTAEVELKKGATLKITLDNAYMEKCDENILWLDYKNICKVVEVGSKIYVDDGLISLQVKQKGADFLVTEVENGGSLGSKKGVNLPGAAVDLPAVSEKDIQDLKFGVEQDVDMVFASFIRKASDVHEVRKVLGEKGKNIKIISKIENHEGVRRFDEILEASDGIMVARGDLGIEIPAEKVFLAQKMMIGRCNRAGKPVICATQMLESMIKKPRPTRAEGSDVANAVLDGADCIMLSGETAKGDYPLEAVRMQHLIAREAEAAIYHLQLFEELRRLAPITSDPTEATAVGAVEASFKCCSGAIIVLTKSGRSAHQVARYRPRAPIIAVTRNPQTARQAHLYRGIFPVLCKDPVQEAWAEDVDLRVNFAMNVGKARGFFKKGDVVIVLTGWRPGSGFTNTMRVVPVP

stoichiometry N: 2
Substance: PKM2 (pyruvate kinase M, isoform M2), P14618 1-531 (enzyme; other documents disagree on this pair)

— publication PMC11121179
